According to the supplement of paper PMC10567573:

B1: GNB5 (parent)
chain: YYPSGDAFASGSDDATCRLYDLRA
B2: CLINT1 (parent)
chain: VVTSAREHIYDLRSLENYHFVDEH

Variants of: B1
Experiment: protein stability index of a GFP-peptide fusion (GPS, HEK-293T) (PSI 1-6); higher = more stable
Conditions: c terminus: a fixed tail appended
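Further: lentivirally expressed fusions sorted by FACS into six bins by GFP to DsRed ratio, PSI derived from sequencing read proportions per bin multiplied by bin number.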

Variant | protein stability index
D21S | 1.89
D21Q | 2.3
D21E | 2.47
D21W | 2.25
D21I | 2.41
D21C | 1.58
D21L | 2.02
D21N | 1.99
D21V | 1.8
D21K | 2.43
D21P | 2.52
D21T | 1.99
P3F | 2.5
P3E | 4.01
P3Y | 2
P3Q | 3.21
P3C | 2.75
P3T | 3.52
P3N | 3.36
P3L | 2.31
P3A | 2.55
P3K | 2.64
P3G | 3.33
P3D | 3.46
P3W | 2.32

Variant | protein stability index
P3H | 3.04
D6L | 2.06
D6N | 2.11
D6S | 2.52
D6E | 2.43
D6Y | 1.97
D6R | 1.91
D6H | 2.26
D6M | 1.92
D6K | 1.64
D6W | 1.52
D6P | 2.81
D14I | 2.65
D14Y | 1.58
D14N | 1.98
D14F | 2.12
D14R | 1.9
D14A | 1.91
D14G | 2.52
D14W | 1.22
D14S | 1.94
D14V | 2.27
D14P | 2.12
D14C | 2.39
D14H | 2.2

Variant | protein stability index
D14E | 2.55
Y20W | 2.33
Y20S | 2.87
Y20G | 2.63
Y20N | 2.95
Y20D | 3.13
Y20Q | 2.88
Y20C | 2.26
Y20V | 2.9
Y20R | 3.13
Y20I | 2.84
Y20M | 2.77
Y20H | 2.42
Y20K | 2.88
Y20E | 3.15
Y20P | 3.32
L19F | 2.33
L19M | 2.5
L19Y | 2.57
L19T | 3.07
L19C | 2.66
L19D | 3.34
L19S | 2.87
L19N | 2.72
L19A | 2.87

Variant | protein stability index
L19G | 2.9
L19Q | 2.65
L19W | 2.46
R18D | 3.35
R18P | 3.13
R18C | 2.29
R18I | 2.42
R18A | 3.06
R18Q | 2.85
R18L | 2.45
R18V | 2.67
R18T | 2.77
R18N | 2.54
R18K | 3.04
R18Y | 2.49
G5T | 3.56
G5L | 2.76
G5V | 3.17
G5D | 3.77
G5E | 3.96
G5Y | 2.4
G5P | 2.69
G5H | 2.81
G5K | 2.89
G5F | 2.61

Variant | protein stability index
G5Q | 2.7
G5M | 2.88
G5W | 2.37
G5S | 3.09
F8L | 3.6
F8H | 4.09
F8T | 4.02
F8E | 4.5
F8C | 3.87
F8A | 4.18
S10D | 3.28
S10W | 2.23
S10N | 2.64
S10T | 2.68
S10L | 2.05
S10F | 2.03
S10C | 2.01
S10E | 3
S10Q | 2.54
S10V | 2.18
S10Y | 2.4
S10I | 1.79
S10K | 2.25
G11K | 1.94
G11N | 2.64

Variant | protein stability index
G11W | 2.11
G11L | 2.89
G11Q | 2.14
G11D | 2.74
G11C | 2.09
G11P | 2.31
G11E | 2.81
G11I | 1.89
G11Y | 1.98
D13V | 1.78
D13K | 2.25
D13L | 1.93
D13N | 2.38
D13H | 2.23
D13T | 1.76
D13M | 1.66
D13A | 1.86
D13F | 1.63
D13G | 1.89
D13R | 1.88
D13E | 2.27
A7M | 2.47
A7Q | 2.65
A7G | 3.47
A7C | 2.31

Variant | protein stability index
A7Y | 2.06
A7T | 2.71
A7H | 2.58
A7E | 3.1
A7L | 2.2
A7K | 2.52
A7R | 3.1
A7P | 2.5
A9C | 2.36
A9T | 2.36
A9W | 1.72
A9M | 2.45
A9D | 3.6
A9Q | 2.36
A9G | 2.41
A9I | 2.12
A9R | 2.17
A9S | 2.56
A9F | 1.9
A9V | 2.32
A9H | 2.15
A9L | 1.99
A15E | 2.75
A15Q | 2.62
A15G | 2.87

Variant | protein stability index
A15W | 2.56
A15H | 2.05
A15Y | 2.21
A15V | 2.72
A15D | 3.4
A15M | 2.36
A15C | 1.98
A15S | 2.25
S4V | 2.56
S4Q | 3.48
S4M | 3.45
S4R | 2.46
S4F | 2.29
S4C | 2.16
S4N | 3.03
S4I | 2.8
S4T | 2.86
S4W | 2.49
S4L | 2.52
S4D | 3.56
S4A | 3.06
S4Y | 2.82
T16L | 2.32
T16H | 2.37
T16K | 3.11

Variant | protein stability index
T16A | 2.96
T16M | 2.31
T16E | 2.79
T16D | 2.91
T16S | 2.42
T16F | 2.32
T16C | 2.27
T16V | 1.95
Y2K | 4.08
Y2W | 1.75
Y2S | 2.18
Y2R | 3.66
Y2T | 1.96
Y2P | 3.16
Y2A | 1.79
Y2M | 2.48
Y2N | 3.55
A24N | 2.79
A24M | 2.85
A24I | 1.9
A24T | 2.86
A24G | 2.7
A24C | 2.3
A24S | 2.32
A24V | 1.78

Variant | protein stability index
A24L | 2.14
A24Y | 2.22
A24K | 2.43
A24R | 2.41
A24E | 2.27
A24Q | 3.01
Y1Q | 3.81
Y1A | 3.83
Y1T | 3.6
Y1I | 3.52
Y1W | 2.86
Y1S | 3.99
Y1K | 3.55
Y1R | 3.58
Y1L | 3.84
Y1E | 3.81
Y1P | 3.72
Y1N | 3.71
R23M | 2.37
R23K | 2.58
R23S | 2.81
R23V | 2.03
R23D | 3.01
R23A | 2.47
R23T | 2.18

Variant | protein stability index
R23F | 2.27
R23I | 2.37
R23E | 3.14
S12G | 1.74
S12C | 2.98
S12V | 2.04
S12D | 3.23
S12N | 2.41
S12Q | 2.08
S12H | 2.92
S12M | 2.13
S12Y | 2.98
S12A | 2.76
S12L | 2.16
S12K | 2.21
S12E | 2.89
S12W | 2.74
S12T | 2.79
S12F | 2.41
S12R | 2.17
S12P | 2.17
C17S | 2.85
C17Y | 2.23
C17K | 2.69
C17P | 2.62

Variant | protein stability index
C17M | 2.46
C17F | 2.07
C17R | 2.62
C17I | 2.89
C17N | 2.8
C17D | 3.3
L22M | 2.49
L22F | 2.64
L22R | 2.75
L22G | 2.65
L22V | 2.62
L22P | 2.85
L22S | 3.08
L22A | 2.8
L22E | 3.34
L22W | 2.26
L22Y | 2.68

Variants of: B2
Experiment: as above
Conditions: c terminus: a fixed tail appended

Variant | protein stability index
E23D | 2.86
E23W | 3.37
E23I | 2.54
E23C | 1.64
E23H | 2.21
E23R | 1.72
E23T | 2.2
E23K | 2.33
E23A | 2.64
E23Y | 1.26
E23P | 1.96
E23S | 2.36
E23M | 1.9
E23G | 3.21
E23Q | 2.55
E23V | 2.07
E23F | 2.51
E23N | 1.96
E23L | 1.93
H24K | 3.21
H24A | 2.85

Variant | protein stability index
H24R | 2.78
H24Q | 3.39
H24E | 4.04
H24D | 4.13
H24I | 2.35
H24T | 3.11
H24S | 3.44
H24V | 2.38
H24P | 2.79
H24M | 2.92
H24N | 3.5
H24C | 2.3
H24W | 2.98
H24F | 2.58
H24G | 3.55
H24L | 2.22
H24Y | 2.32
D22Y | 1.5
D22T | 1.75
D22V | 2.3
D22W | 3.21
